Experiment: yeast display, Sf9 membrane polyspecificity reagent, FACS + sequencing; frameworks hold sequencing errors
Outline: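 Using colony PCR, genes from sorted yeast display clones were amplified, then sequenced on MiSeq at 2 × 250 and filtered by CDR length. The clones had been stained with 10% biotinylated, detergent-solubilized Sf9 membrane reagent for 1 hour at 4 °C and sorted by FACS into low and high (top ~1%) gates on anti-HA and streptavidin fluorescence. Polyreactivity labels come from the gate of origin.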

Row | Sequence | polyreactivity (PSR sort gate)
1 | QVQLEESGGGLVQAGGSLRLSCAASGSTFGWYAMGWYRQAPGKERELVASITSGGRTNYADSVKGRFTISRDNAKNTVYLQMNCLKPEDTAVYYCAKRVYGSNSLYDYWGQGTQVTVTS | low polyreactivity
2 | QVQLEESGGGLVQAGGSLRLSCAASGSTFGYYAMGWYRKAPGKERELVAAISRSGGSTYYADSVKGRFTISRDNAKNTVYLQMNSLKPEDTAVYYCAAKVYGAVYHYYYWGQGTQVTVSS | high polyreactivity
3 | QVQLEESGGGLVQAGGSLRLSCAASGSTFGYYTMGWYRQAPGKERELVAAISWSGGSTYYADSVKGRFTISRDNAKNTVYLQMNSLKPEDTAVYYCAALGYTYKYYSYYWGQGTQVTVSS | high polyreactivity
4 | QVQLEESGGGLVQAGGSLRLSCAASGSTFKLYTMGWYRQAPGKEREFVATITSGGRTNYADSVKGRFTISRDNAKNTVYLQMNSLKPEDTAVYYCAATWLRVKYRFKGYDYWGQGTQVTVSS | high polyreactivity
5 | QVQLEESGGGLVQAGGSLRLSCAASGSTFRAYAMGWYRQAPGKERELVAAITSTTDTYYADSVKGRFTISRDNAKNTVYLQMNSLKPEDTAVYYCASVWVWTYDYWGQGTQVTVSS | low polyreactivity
6 | QVQLEESGGGLVQAGGSLRLSCAASGSTFRDNALGWYRQAPGKETELVAGITRGGITNYADSVKGRFTISRDNAKNTVYLQMNSLIPEDTAVYYCAAEVTGTYYDYDYWGQGTQVTVSS | low polyreactivity
7 | QVQLEESGGGLVQAGGSLRLSCAASGSTFTFNAMGWYRQAPGKERELVAVISSGGSTYYAESVKGRFTISRDNAKNTFYLQMNSLKPEDTAVYYCNKVYGYFGQYYLRYNYWGQGTQVTVSS | low polyreactivity
8 | QVQLEESGGGLVQAGGSLRLSCAASGSTFTVNGMGWYRQAPGKERELVAAIDGGDGSTYYADSVKGRFTISRDNAKNTVYLQMNSLKPEDTAVYYCAADTPCFTQYGYWGQGTQVTVSS | low polyreactivity
9 | QVQLEESGGGLVQAGGSLRLSCAASGSTFVEYAMGWYRQAPGKERELVAAITASGGSTYYADSVKGRFTISRDNAKNTVYLQMNSLKPEDTAVYYCAVTTRSRGFRDIDYWGQGTQVTVSS | low polyreactivity
10 | QVQLEESGGGLVQAGGSLRLSCAASGSTFVYYARGWYRQAPGKERELVAAITTRGGSTYYADSVKGRFTISRDNAKNTVYLQMNSLKPEDTAVYYCATKWPVYPTGYDYWGQVTQVTVSS | low polyreactivity
11 | QVQLEESGGGLVQAGGSLRLSCAASGSTFYTNAMGWYRQAPGKERELVAAISASVGSTYYADSVKGRFTISRDNAKNTVYLQMNSLKPEDTAVYYCAADVWASRRYDYWGQGTQVTVSS | low polyreactivity
12 | QVQLEESGGGLVQAGGSLRLSCAASGSTIHDNDMGWYRQAPGKERELVAAISWSGGSTTYADSVKGRFTISRDNAKNTVYLQMNSLKPEDTAVYYCAADWYYWGFIFDYWGQGTQVTVSS | high polyreactivity
13 | QVQLEESGGGLVQAGGSLRLSCAASGSTIRYNAMGWSRQAPGKERELVAGISVRGGSTYYADSVKGRFTISRDNAKNTVYLQMNSLKPEDTAVYYCATRSPYSYPNLYYWGQGTQVTVSS | high polyreactivity
14 | QVQLEESGGGLVQAGGSLRLSCAASGSTISENTMGWYRQAPGKERELVDAISFSGGSTYYADSVKGRFTISRDIAKNTVFLQMNSLKPEDTAVYYCRRFSSSPKLALGEYDFWGQGTQVTVSS | low polyreactivity
15 | QVQLEESGGGLVQAGGSLRLSCAASGSTVGIYAMGWYRPAPGKERELVAAISSRGSTYYADSVKGRFTISRDNAKNTVYLQMNSLKPEDTAVYYCAAGYAWYNYWGQGTQVTVSS | high polyreactivity
16 | QVQLEESGGGLVQAGGSLRLSCAASGSTVWANAMGWYRPAPGKERELVAAITSTGITYYADSVKGRFTISRDNAKNTVYLQMNSLTPEDTAVYYCAASFPGAGYGMDYWGQGTQVTVSS | low polyreactivity
17 | QVQLEESGGGLVQAGGSLRLSCAASGTILDSNAIGWYRQAPGKERELVAAITSCGSTYYADSVKGRFTISRDNAKNTVYLQMNSLKPEDTAVYYCAAAYLGYVAVQPSYEVGYWGQGTQVTVSS | low polyreactivity
18 | QVQLEESGGGLVQAGGSLRLSCAASGYTFGTYTMGWYRQAPGKERELVAGIDSGGTTNYADSVKGRFTISRDNAKNTVYLQMNSLKPEDTAVYYCTAYHLLIFDYYLGLYYYRGNYYWGQGTQVTVSS | low polyreactivity
19 | QVQLEESGGGLVQAGGSLRLSCAASVSIFESYAKGWNRQAPGKEREFVAAISDSGADTYYADSVKGRFTISRDNAKNTVYLQMNCLKPEDTAVYYCATDDYFSSYGYFLDGYWGQGTQVTVSS | low polyreactivity
20 | QVQLEESGGGLVQAGGSLRLSCAATASIFDYYAMGWYRQAPGKERELVAAISGTGGSTYYADSVMGRFTISRDNAKNTVYLQMNSLKPEDTAVYYCNAARVIRTALRNDGTFDYWGQGTQVTVSS | high polyreactivity
21 | QVQLEESGGGLVQAGGSLRLSCADSGITFYLNAMGWYRQAPGKERELVADITVSGGSTYYADSVKGRFTISRDNAKNTVYLEMNSLKPEDTAVYYCAADMTISYSQEYYFWGQGTQVTVSS | low polyreactivity
22 | QVQLEESGGGLVQAGGSLRLSCAPSVIIFPAYDMGWYRQAPGKERELVAAIRTSGTSTYYADSVKGRFTISRDNAKNTVYLEMNSLKPDDTAVYYCGAYQAYGGDYWGQGTQVTVSS | high polyreactivity

Row | Sequence | polyreactivity (PSR sort gate)
23 | QVQLEESGGGLVQAGGSLRLSCASYGSIFGHYAMGLYRQAPGKARELVAGISKSGGRTYDADSVKGRFTISRDNAKNTVFLQMNSLKPEDTAVYYCNALVTRYQSLDRLGDYWGQGTQVTVSS | high polyreactivity
24 | QVQLEESGGGLVQAGGSLRLSCPASGSIFSWNAMGWYRQSPGKERELVATITWNGGRTYYADSVKGRFTISRDNAKNTVYLQMKSLKPEDTAVYYCAARYYVYWTYPNRVLSYYYWGQRTQVTVSS | high polyreactivity
25 | QVQLEESGGGLVQAGGSLRLSFAASISSINAMGWYRQAPGKESELVAAIRCSGSSTYYADSVKGRFTISRDNAMITFYLQMNSVKPEDTAVYYCAADTSTGDRGFDYWGHGTQVTVSS | high polyreactivity
26 | QVQLEESGGGLVQAGGSLRLSGAASGRTSDGYAMGWYRQAPGKERELVAGITEGGGDTYYADSVKGRFTMSRDTAKNTVYLQMNSLKPEDPALYYCNAVEGSRLPYDYGGQGTQVTVSS | low polyreactivity
27 | QVQLEESGGGLVQAGGSLRLSSAASGTISATYAMGWYRQAPGKERELVAAISRNGGSTYYADSVKGRFTISRDNAKNTVYLQMNSLKPEDTAVYYCATSSSKSMYWGQGTQVTVSS | high polyreactivity
28 | QVQLEESGGGLVQAGGSLRLTCAACGSIFGPNAMGWYRQAPGKERELVAAIDSSDGSTYYADSVKGRFTISRDNAKNSVYLQMNSLKPEDTAVYYCADELGYIYYSYWWQYDYWGQGTQVTVSS | high polyreactivity
29 | QVQLEESGGGLVQAGGSLRLTCAASGFIFDDNAMGWYRQAPGKERELVAAISQGAGRTYYADSVKGRFTISRDNAKNTVYLQMNSLKPEDTAVYYCNSGRPKYWYGSKYDYWGQGTQVTVSS | low polyreactivity
30 | QVQLEESGGGLVQAGGSLRLTCAASGSILVYNAMGWYRQAPGKERELVAGISSSGTRTYYADSVKGRFTISRDNAKITFYLQMNSLKPEDTAVYYCNALPVRGHQEYDSWGQGTQVNVSS | high polyreactivity
31 | QVQLEESGGGLVQAGGSLSLSCAASGSIFSNYAMGWYRQAPGKERELVAAIRISGGSTKYADSVKGRFTISRDNAKNTVYLQMNSLKPEDTAVYYCAAANSKRHRRYNYWGQGTQVTVSS | high polyreactivity
32 | QVQLEESGGGLVQAGGSLSVSCAASGSICRNYAMGWYLQAPGKERELVAAISVRGGSTYYADSVKGRFTISRDNAKNTVYLQMHSLKPEDTAGYYCNAVHHDTISDYWGQGTQVTVSS | high polyreactivity
33 | QVQLEESGGGLVQAGGTLRLSCAASGGIIVSYAMGWYRPAPRKERELVAAITSGGGTSYADSVKGRFTISRDNAKNTVYLQLNSLKPEDTAVYYCNADGYLAERFVIRLVEFRDYDYWGQGTQVTVSS | low polyreactivity
34 | QVQLEESGGGLVQAGGTLRLSCAASVGIFNYYTMGWYREAPGKERELVAAITRGGSTYYADSVKGRFTISRDNAKNTVYLQMNSLKPEDTAVYYCAAVWRRYDKSPLEGSWGQGTQVTLSS | high polyreactivity
35 | QVQLEESGGGLVQAGRSLRLSCAASGRIFTYYSMGWYRQAPWKERELVAAISRSGRTYYADSVKGRFTISRDNAKNTVYLQMNILIPEDTAVYYCAAEYYYSWFEYWGQGTQVTVSS | high polyreactivity
36 | QVQLEESGGGLVQAGVSLRLSCAASGFTFDRYAMGSYRQAPAKEREMVAALSRSGTSTYYADSVKGRFTISRDNAKYTVYLQMNSLKPEDNAVYYCATRYTVYFPSRLSQYDYWGQGTQVTVSS | high polyreactivity
37 | QVQLEESGGGLVQAGVSLRLSCAASGSTFGYYAMGWSRQAPGKERELVAAITSGGTTNYADYVKGRFTISRYNEKNTVYLQMYSLKPEDTAVYYCNAVGTFVRYWTDGRDGVTYDFWGQGTQVTVSS | low polyreactivity
38 | QVQLEESGGGLVQEGGSLRLSCSASGRTFRYAMGWYRQAPGKERELVAAISWRGGSTFYADSVKGRFTISRDNAKNTVYLQMNSLKPEDTAVYYCATEFRYHYLSTWSWRYYYWGQGTQVTVSS | low polyreactivity
39 | QVQLEESGGGLVQPGGSLRLSCAASGTTIGHNAMGLYREAPGKERELVAAISNSGTRTYYADSVKGRFTISRDNAKNTVYLQMNILKPEDTAVYDCAARYYHIYTKYLQGSDYWGQGTQVTVSS | high polyreactivity
40 | QVQLEESGGGLVQSGGSLRLSCAASGRTFSGYAMGSYRQAPGKERELVSAISFSGGSTYYADSVKGRFTISRDNAMNTVYLQMNSLIPEDTAVYYCNAYSWYNGIGNYDYWGQGTQVTVSS | low polyreactivity
41 | QVQLEESGGGVVQAGGSLRLSCAASGRTFRWYAMGWYRQAPGKERELVATINSGGTTNYADSVKGRFTISRDNAKNTVYLQMNSLKPEDTAVYYCAATNRGPGHDYWGQGTQVTVSS | low polyreactivity
42 | QVQLEESGGGVVQAGGSLRLSCAASGSTFLQYAMGWYRQATGKERELVAAISWRAGSTYYADSVKGRFTISRDTAQNTVYLQMNSLKPEDTAVYYCAADRNGWRYELDDYDYWGQGTQVTVSS | low polyreactivity
43 | QVQLEESGGRLVQAGGSLRLSCAASGRILRRYTMGWYRQAPGKETELVAAISSGGNTYYADSVKGRFTISRDNAKNTVYLQMNSLKPEDTAVDYCAARVRRYWEYDYWGQGTQVTVSS | low polyreactivity

From the nanobody polyreactivity screen of Harvey et al. (2022)
